Measurements: patent US20220162308A1 (Novartis, published 2022)
Read-outs that look alike come from different tables or passages of the source.

Columns and labels:
Human CD48 on cells [1] = target: T1, Human CD48 on cells (human, UniProt P09326 27-220); experiment: cell-based or functional assay
T1 sequence: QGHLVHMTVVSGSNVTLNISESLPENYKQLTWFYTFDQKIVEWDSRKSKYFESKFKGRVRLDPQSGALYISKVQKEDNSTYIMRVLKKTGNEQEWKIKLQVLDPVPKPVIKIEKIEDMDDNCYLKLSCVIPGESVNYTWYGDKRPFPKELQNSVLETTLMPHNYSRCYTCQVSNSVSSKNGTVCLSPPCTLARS

Human CD48 on cells [2] = target: T1, Human CD48 on cells; experiment: cell-based or functional assay; remark: listed apart in the source
[3] = target: T2, Cynomolgus CD48 (soluble recombinant, SPR analyte) (cynomolgus monkey (Macaca fascicularis), UniProt P09326 30-225 (human entry)); experiment: SPR Biacore T200, antibody captured on protein A chip, soluble CD48 as analyte, 25 C, 1:1 model
T2 construct: also called cyno CD48; Cyno CD48; not shown: C-terminal tag (hFc1P, APP6-Avi or His) is not specified for the analyte
T2 chain: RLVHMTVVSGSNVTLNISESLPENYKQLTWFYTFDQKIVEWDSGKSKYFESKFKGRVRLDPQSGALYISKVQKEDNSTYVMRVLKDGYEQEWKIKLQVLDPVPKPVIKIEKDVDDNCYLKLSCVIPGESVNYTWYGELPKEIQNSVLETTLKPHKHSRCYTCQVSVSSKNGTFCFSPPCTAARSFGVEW
Procedure: (§1) HBS-EP+pH 7.4 containing 10 mM HEPES, 150 mM NaCl, 3 mM EDTA and 0.05% (v/v) surfactant P20 (Teknova, ordering #H8022) was used as running buffer as well as for sample dilution.
(§2) The anti-CD48 antibodies were diluted at 5 μg/ml and injected on flow cells 2 and 4 for 20 sec at 10 μl/min. Capture level for all antibodies was 370-440 RU. Flow cells 1 and 3 were left blank (no antibody captured) and used as a reference surface. Human and cynomolgus CD48 served as analytes in solution. […] After each cycle of antibody capture and analyte injection, the chip surface was regenerated with 10 mM Glycine-HCl pH 1.5 (Cytiva, ordering #BR100354) for 2×30 s at a flow rate of 50 μl/min. Three runs with duplicate measurements and buffer blank injections were performed. Measurements were executed at 25° C. and data collected at a rate of 10 Hz.
(§3) Data were evaluated using the Biacore 8K evaluation software. The raw data were double referenced, i.e. the response of the measuring flow cells was corrected for the response of the reference flow cells (no antibody captured), and in a second step the response of a blank injection (buffer) was subtracted. Finally, the sensorgrams were fitted by applying a 1:1 interaction model with a constant fit of RI (0) and a global fit for Rₘₐₓ. Kinetic rate constants (kₐ, kd) and equilibrium dissociation constants (KD) were calculated. Data were processed separately for each run. The generated values were used to calculate average values and standard deviations of the respective equilibrium dissociation constants and the kinetic rate constants.

[4] = target: T3, Human CD48 (soluble recombinant, SPR analyte) (human, UniProt P09326 27-220); experiment: as above
T3 construct: also called Human CD48 antigen; not shown: C-terminal tag (hFc1P, APP6-Avi or His) is not specified for the analyte
T3 sequence: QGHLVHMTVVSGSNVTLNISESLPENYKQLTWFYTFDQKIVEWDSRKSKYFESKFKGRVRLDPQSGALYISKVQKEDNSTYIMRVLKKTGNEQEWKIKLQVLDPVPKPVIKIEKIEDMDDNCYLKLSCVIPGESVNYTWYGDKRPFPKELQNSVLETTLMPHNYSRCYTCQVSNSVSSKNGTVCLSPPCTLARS
Procedure: as §1, §2, §3

[5] = target: T2, Cynomolgus CD48 (soluble recombinant, …); experiment: SPR Biacore T200, antibody captured on Protein A chip, soluble CD48 as analyte, 1:1 model, Exp 1
Procedure: (§4) Binding to human and cyno CD48 for the WT IgG and DAPA (D265A and P329A mutation) variant was assessed for affinity determinations using Biacore. Kinetic rate constants was performed via SPR using the Biacore T200 instrument (Cytiva, formerly GE Healthcare Lifesciences) as described below.
(§5) The Protein A capture method was utilized in order to determine kinetics for the antibodies. […] The human CD48 and cyno CD48 concentration started at 50 nM and 200 nM respectively, and were serially diluted at one part to one part for nine concentrations. Regeneration was performed at the end of each concentration washing with the Glycine pH1.5 (Cytiva, cat #BR100354).
(§6) Double reference subtraction was completed to generate the final data. The raw data was fitted to a 1:1 binding model, with parameter(s) Rmax set to local.

[6] = target: T3, Human CD48 (soluble recombinant, SPR …); experiment: as above
Procedure: as §4, §5, §6

[7] = target: T2, Cynomolgus CD48 (soluble recombinant, …); experiment: SPR Biacore T200, antibody captured on Protein A chip, soluble CD48 as analyte, 1:1 model, Exp 2
Procedure: as §4, §5, §6

[8] = target: T3, Human CD48 (soluble recombinant, SPR …); experiment: as above
Procedure: as §4, §5, §6

B1: CD48A-CysMab-VC-MMAE (antibody, human IgG1, kappa)
heavy: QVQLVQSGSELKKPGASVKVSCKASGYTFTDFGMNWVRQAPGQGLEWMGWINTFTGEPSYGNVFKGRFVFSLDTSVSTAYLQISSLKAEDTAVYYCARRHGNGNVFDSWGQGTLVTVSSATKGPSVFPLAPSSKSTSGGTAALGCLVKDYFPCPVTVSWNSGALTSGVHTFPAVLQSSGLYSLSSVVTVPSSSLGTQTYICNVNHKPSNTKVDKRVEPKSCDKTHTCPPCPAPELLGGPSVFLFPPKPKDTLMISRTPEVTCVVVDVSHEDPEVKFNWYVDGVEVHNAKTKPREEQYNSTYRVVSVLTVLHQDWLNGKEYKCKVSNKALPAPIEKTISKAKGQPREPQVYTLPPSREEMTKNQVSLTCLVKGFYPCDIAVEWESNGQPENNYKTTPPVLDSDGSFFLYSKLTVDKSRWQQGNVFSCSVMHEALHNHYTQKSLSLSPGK
light: EIVLTQSPDFQSVTPKEKVTITCRASQSIGSNIHWYQQKPDQSPKLLIKYTSESISGVPSRFSGSGSGTDFTLTINSLEAEDAATYYCQQSNSWPLTFGGGTKVEIKRTVAAPSVFIFPPSDEQLKSGTASVVCLLNNFYPREAKVQWKVDNALQSGNSQESVTEQDSKDSTYSLSSTLTLSKADYEKHKVYACEVTHQGLSSPVTKSFNRGEC
modifications: MC-valcit-PAB-MMAE on the engineered cysteines (CysMab: E152C, S375C, EU numbering); DAR 3.9
IC50 (nM), cell proliferation/survival (CellTiter-Glo), KMS-21-BM (Human CD48 on cells [1]): 0.062 nM
IC50 (nM), cell proliferation/survival (CellTiter-Glo), KMS-27 (Human CD48 on cells [1]): 6.1 nM
IC50 (nM), cell proliferation/survival (CellTiter-Glo), NCI-H929 (Human CD48 on cells [1]): 2.1 nM

B2: NY920-DAPA-VC-MMAE (antibody, human IgG1, kappa)
heavy: EVQLLESGGGLVQPGGSLRLSCAASGFTFSSFAMSWVRQAPGKGLEWVSAISGFGGSTYYADSVKGRFTISRDNSKNTLYLQMNSLRAEDTAVYYCARQFWEDQPFYFDYWGQGTLVTVSSASTKGPSVFPLAPSSKSTSGGTAALGCLVKDYFPCPVTVSWNSGALTSGVHTFPAVLQSSGLYSLSSVVTVPSSSLGTQTYICNVNHKPSNTKVDKRVEPKSCDKTHTCPPCPAPELLGGPSVFLFPPKPKDTLMISRTPEVTCVVVAVSHEDPEVKFNWYVDGVEVHNAKTKPREEQYNSTYRVVSVLTVLHQDWLNGKEYKCKVSNKALAAPIEKTISKAKGQPREPQVYTLPPSREEMTKNQVSLTCLVKGFYPCDIAVEWESNGQPENNYKTTPPVLDSDGSFFLYSKLTVDKSRWQQGNVFSCSVMHEALHNHYTQKSLSLSPGK
light: not shown
modifications: VC-MMAE (MC-valcit-PAB-MMAE) on the engineered cysteines (E152C, S375C, EU numbering)
Amax (Span), KMS-20 (Human CD48 on cells [2]): 94
Amax (Span), KMS-21-BM (Human CD48 on cells [2]): 92.9
Amax (Span), KMS-27 (Human CD48 on cells [2]): 83.9
Amax (Span), NCI-H929 (Human CD48 on cells [2]): 89.7
IC50 (nM), cell proliferation/survival (CellTiter-Glo), KMS-20 (Human CD48 on cells [2]): 0.077 nM
IC50 (nM), cell proliferation/survival (CellTiter-Glo), KMS-21-BM (Human CD48 on cells [2]): 0.026 nM
IC50 (nM), cell proliferation/survival (CellTiter-Glo), KMS-27 (Human CD48 on cells [2]): 0.028 nM
IC50 (nM), cell proliferation/survival (CellTiter-Glo), NCI-H929 (Human CD48 on cells [2]): 0.027 nM

B3: NY938 (antibody, human IgG1, kappa)
heavy: not shown
light: DIQMTQSPSSLSASVGDRVTITCKASQDVGTAVAWYQQKPGKVPKLLIYWASTRHTGVPSRFSGSGSGTDFTLTISSLQPEDVATYYCQQYSTYPITFGQGTKLEIKRTVAAPSVFIFPPSDEQLKSGTASVVCLLNNFYPREAKVQWKVDNALQSGNSQESVTEQDSKDSTYSLSSTLTLSKADYEKHKVYACEVTHQGLSSPVTKSFNRGEC
notes: also called anti-CD48-NY938-hIgG1_kappa (a-fuc); NY938-IgG
Kd [3]: 1.5 nM
koff [3]: 0.00037 s⁻¹
kon [3]: 250000 M⁻¹ s⁻¹
Kd [4]: 0.5 nM
koff [4]: 0.00013 s⁻¹
kon [4]: 250000 M⁻¹ s⁻¹
IC50 (nM), cell proliferation/survival (CellTiter-Glo), KMS-21-BM, with anti-human Fc-VC-MMAE (Human CD48 on cells [1]): 0.008 nM
IC50 (nM), cell proliferation/survival (CellTiter-Glo), KMS-27, with anti-human Fc-VC-MMAE (Human CD48 on cells [1]): < 0.001 nM
IC50 (nM), cell proliferation/survival (CellTiter-Glo), NCI-H929, with anti-human Fc-VC-MMAE (Human CD48 on cells [1]): 0.004 nM
Span (Amax), KMS-21-BM, with anti-human Fc-VC-MMAE (Human CD48 on cells [1]): 98.9
Span (Amax), KMS-27, with anti-human Fc-VC-MMAE (Human CD48 on cells [1]): > 100
Span (Amax), NCI-H929, with anti-human Fc-VC-MMAE (Human CD48 on cells [1]): 99.7

B4: NY938-CysMab-VC-MMAE (antibody, human IgG1, kappa)
heavy: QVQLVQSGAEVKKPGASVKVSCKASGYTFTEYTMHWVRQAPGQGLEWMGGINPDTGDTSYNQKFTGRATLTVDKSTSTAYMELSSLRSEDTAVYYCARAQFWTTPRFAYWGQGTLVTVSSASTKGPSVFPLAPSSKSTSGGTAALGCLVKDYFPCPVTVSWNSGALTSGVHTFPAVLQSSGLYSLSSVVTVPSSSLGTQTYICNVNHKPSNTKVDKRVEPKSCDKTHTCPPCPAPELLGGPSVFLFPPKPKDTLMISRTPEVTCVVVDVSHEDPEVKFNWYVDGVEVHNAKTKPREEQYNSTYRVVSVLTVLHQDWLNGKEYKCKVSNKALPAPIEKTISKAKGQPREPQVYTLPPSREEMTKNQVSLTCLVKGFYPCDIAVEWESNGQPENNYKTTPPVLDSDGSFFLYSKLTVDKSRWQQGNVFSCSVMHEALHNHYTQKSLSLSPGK
light: DIQMTQSPSSLSASVGDRVTITCKASQDVGTAVAWYQQKPGKVPKLLIYWASTRHTGVPSRFSGSGSGTDFTLTISSLQPEDVATYYCQQYSTYPITFGQGTKLEIKRTVAAPSVFIFPPSDEQLKSGTASVVCLLNNFYPREAKVQWKVDNALQSGNSQESVTEQDSKDSTYSLSSTLTLSKADYEKHKVYACEVTHQGLSSPVTKSFNRGEC
modifications: VC-MMAE (MC-valcit-PAB-MMAE) on the engineered cysteines (E152C, S375C, EU numbering)
Amax (Span), KMS-20 (Human CD48 on cells [2]): 99.2
Amax (Span), KMS-21-BM (Human CD48 on cells [2]): 105
Amax (Span), KMS-27 (Human CD48 on cells [2]): 98.6
Amax (Span), NCI-H929 (Human CD48 on cells [2]): 101
IC50 (nM), cell proliferation/survival (CellTiter-Glo), KMS-20 (Human CD48 on cells [2]): 0.043 nM
IC50 (nM), cell proliferation/survival (CellTiter-Glo), KMS-21-BM (Human CD48 on cells [2]): 0.021 nM
IC50 (nM), cell proliferation/survival (CellTiter-Glo), KMS-27 (Human CD48 on cells [2]): 0.017 nM
IC50 (nM), cell proliferation/survival (CellTiter-Glo), NCI-H929 (Human CD48 on cells [2]): 0.018 nM

B5: NY938-DAPA-VC-MMAE (antibody, human IgG1, kappa)
heavy: QVQLVQSGAEVKKPGASVKVSCKASGYTFTEYTMHWVRQAPGQGLEWMGGINPDTGDTSYNQKFTGRATLTVDKSTSTAYMELSSLRSEDTAVYYCARAQFWTTPRFAYWGQGTLVTVSSASTKGPSVFPLAPSSKSTSGGTAALGCLVKDYFPCPVTVSWNSGALTSGVHTFPAVLQSSGLYSLSSVVTVPSSSLGTQTYICNVNHKPSNTKVDKRVEPKSCDKTHTCPPCPAPELLGGPSVFLFPPKPKDTLMISRTPEVTCVVVAVSHEDPEVKFNWYVDGVEVHNAKTKPREEQYNSTYRVVSVLTVLHQDWLNGKEYKCKVSNKALAAPIEKTISKAKGQPREPQVYTLPPSREEMTKNQVSLTCLVKGFYPCDIAVEWESNGQPENNYKTTPPVLDSDGSFFLYSKLTVDKSRWQQGNVFSCSVMHEALHNHYTQKSLSLSPGK
light: DIQMTQSPSSLSASVGDRVTITCKASQDVGTAVAWYQQKPGKVPKLLIYWASTRHTGVPSRFSGSGSGTDFTLTISSLQPEDVATYYCQQYSTYPITFGQGTKLEIKRTVAAPSVFIFPPSDEQLKSGTASVVCLLNNFYPREAKVQWKVDNALQSGNSQESVTEQDSKDSTYSLSSTLTLSKADYEKHKVYACEVTHQGLSSPVTKSFNRGEC
modifications: VC-MMAE (MC-valcit-PAB-MMAE) on the engineered cysteines (E152C, S375C, EU numbering)
Amax (Span), KMS-20 (Human CD48 on cells [2]): 99.8
Amax (Span), KMS-21-BM (Human CD48 on cells [2]): 105
Amax (Span), KMS-27 (Human CD48 on cells [2]): 108
Amax (Span), NCI-H929 (Human CD48 on cells [2]): 105
IC50 (nM), cell proliferation/survival (CellTiter-Glo), KMS-20 (Human CD48 on cells [2]): 0.037 nM
IC50 (nM), cell proliferation/survival (CellTiter-Glo), KMS-21-BM (Human CD48 on cells [2]): 0.021 nM
IC50 (nM), cell proliferation/survival (CellTiter-Glo), KMS-27 (Human CD48 on cells [2]): 0.014 nM
IC50 (nM), cell proliferation/survival (CellTiter-Glo), NCI-H929 (Human CD48 on cells [2]): 0.016 nM

B6: NY938 DAPA (antibody, human IgG1, kappa, name in EU numbering)
heavy: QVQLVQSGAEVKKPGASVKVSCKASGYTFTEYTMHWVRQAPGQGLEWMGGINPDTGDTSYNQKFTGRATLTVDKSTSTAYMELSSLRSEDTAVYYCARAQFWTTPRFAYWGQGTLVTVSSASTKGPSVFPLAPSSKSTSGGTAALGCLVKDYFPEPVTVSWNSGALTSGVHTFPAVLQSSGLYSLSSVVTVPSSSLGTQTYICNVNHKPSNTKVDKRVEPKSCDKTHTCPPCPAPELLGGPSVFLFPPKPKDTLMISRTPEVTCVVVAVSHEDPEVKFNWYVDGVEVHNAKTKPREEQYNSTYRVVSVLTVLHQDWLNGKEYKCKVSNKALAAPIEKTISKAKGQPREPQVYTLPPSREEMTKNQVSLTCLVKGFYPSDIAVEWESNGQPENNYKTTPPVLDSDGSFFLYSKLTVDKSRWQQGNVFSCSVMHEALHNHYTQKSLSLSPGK
light: DIQMTQSPSSLSASVGDRVTITCKASQDVGTAVAWYQQKPGKVPKLLIYWASTRHTGVPSRFSGSGSGTDFTLTISSLQPEDVATYYCQQYSTYPITFGQGTKLEIKRTVAAPSVFIFPPSDEQLKSGTASVVCLLNNFYPREAKVQWKVDNALQSGNSQESVTEQDSKDSTYSLSSTLTLSKADYEKHKVYACEVTHQGLSSPVTKSFNRGEC
notes: Positions are EU numbers; also called NY938 DAPA IgG variant
Kd [5]: 1.07 nM
koff [5]: 0.000289 s⁻¹
kon [5]: 271000 M⁻¹ s⁻¹
Kd [6]: 0.296 nM
koff [6]: 0.000104 s⁻¹
kon [6]: 352000 M⁻¹ s⁻¹
Kd [7]: 0.774 nM
koff [7]: 0.000316 s⁻¹
kon [7]: 409000 M⁻¹ s⁻¹
Kd [8]: 0.252 nM
koff [8]: 0.000115 s⁻¹
kon [8]: 456000 M⁻¹ s⁻¹
